Data reported in the DeepSol protein solubility set.

Assay: soluble on expression in E. coli; label from the status in PepcDB or PDB records

Sequence | soluble on expression in E. coli
MGSDKIHHHHHHMVRPASRSERASLRIMNINPWRCEVSEKLLKQVNDKVSLCEKIAAEGFSFVPGQQIREWLLASNSEALQDWQAFDASWDGMPLDEYMADGGRYRRRRFATLSAATEGPIMLEPHQPHYQSREYNSLNGGIARIYEPIPPAVIQGQTMQSILQLSRDLFSHLRPQTRWHIEAHQFRIETNQHERGQPAPEGVHRDGVDYVLVMMVKRVNISSGTTTLHNLDKVVLDSFTLTNPLDCALVDDRRCMHGVTPVEQIDPAKAAYRDVLVVTFTAKL | not soluble
AIAATSELSCEVSEENCERREAFWAEWKDLTLSTRPEEGCSLHEEDTQRHETYHQQGQCQVLVQRSPWLMMRMGILGRGLQEYQLPYQRVLPLPIFTPAKMGATKEEREDTPIQLQELLALETALGGQCVDRQEVAEITKQLPPVVPVSKPGALRRSLSRSMSQEAQRG | soluble
MRRRWYNNGGFQTLRMLEESSSEVTSSSALGLPPAMVMSPESLASPEYGGLELWGYDDGITYSMAQSLGTCTMEQQQPQPQQQPQQTQPLPSMPLPMPPTTPKSENESMSSGREELSPASSVNGCSTDGEARRQKKGPAPRQQEELCLVCGDRASGYHYNALTCEGCKGFFRRSVTKNAVYICKFGHACEMDMYMRRKCQECRLKKCLAVGMRPECVVPENQCAMKRKEKKAQREKDKLPVSTTTVDDHMPPIMQCDPPPPEAARIHEVVPRFLNEKLMEQNRLKNVPPLTANQKSLIARLVWYQEGYEQPSEEDLKRVTQTWQSDEDDEDSDMPFRQITEMTILTVQLIVEFAKGLPGFAKISQSDQITLLKACSSEVMMLRVARRYDAATDSVLFANNQAYTRDNYRKAGMAYVIEDLLHFCRCMYSMMMDNVHYALLTAIVIFSDRPGLEQPLLVEEIQRYYLNTLRVYILNQNSASPRCAVIFGKILGILTEIRTLGMQNSNMCISLKLKNRKLPPFLEEIWDVADVATTATPVAAEAPAPLAPAPPARPPATV | soluble
MIVSFKCVHTRYLFLQGKTRLWPSIKSVAERKLAMLDAATSILDLRSPPGNRLEALDGSRSGQYSVRINAPFRICFVWSINGPEDVEIVDYH | not soluble
MSLSLSSIIKNIPKAELHLHIEGSLTPELMWRLAEKHSVSLPYASVEEIEAAYNFEDLQSFLDLYYAGAGVLRDEDDFFALMWEYLTRCHEDNIVHTEIMFDPQTHTERDIGFDIFMPGFLKAMEKAKDEYGISSYLIMSFLRHLPEDAAFDTLSAAEPYYEHITAVGLDSSELGHPPSKFERVFKKAKALGFKIVAHAGEEGPASYIWEAIELLDVDRIDHGVRCQEDEALMDLLKERQIPLTVCPLSNLKLCVINDMKDHNIVQLLDAGLLVTVNSDDPTYFGGFLNDNFEALHQSLGIDEKTVRTLVANSFKASFLPQEQKNQLVEKVLSAEGHHHHHH | soluble
KILLEPTKVSFWGILRTPFMEQFGNGITPFSVGGQPMQILGLRQAGVSLGEGSSVSLMK | not soluble
GSHMTRTRMENELIVSKNMQNIIIAGNGPSLKNINYKRLPREYDVFRCNQFYFEDKYYLGKKIKAVFFNPGVFLQQYHTAKQLILKNEYEIKNIFCSTFNLPFIESNDFLHQFYNFFPDAKLGYEVIENLKEFYAYIKYNEIYFNKRITSGVYMCAIAIALGYKTIYLCGIDFYEGDVIYPFEAMSTNIKTIFPGIKDFKPSNCHSKEYDIEALKLLKSIYKVNIYALCDDSILANHFPLSININNNFTLENKHNNSINDILLTDNTPGVSFYKNQLKADNKIMLNFY | soluble
METGGGAPLTKSSEAVEGDFVEDRLRGNEAFRRGNYEAAASYYSEALEKIRLAKTELPTQDRYPWSLEEVLIRCNRALVFLRLASAAALPNVGSNRFEEDACTAEHESEEATPCSLWQRAAEDASVALDLITDFEDEGESERVTELRVKALYRRMVANKGQNNFADAAKDAEALAKIRPEYRSEAELLAQRAAAESERAKQEALQKLKEVGNSFLSLFGVSIDNFQTKRNPDGTYSVSYCPKS | not soluble
MGSDKIHHHHHHMSGSKIKIALFNDTDFRVNIGCRLTSQGLKQQILDAFPAAEITSIGFNFAAFRKEFPKSTSAGGYELSDIETRLSTAYGEGAVDHIRAADFVILQPEGSLDHRTTAEGLATFFTPILTARKLGKPFAVLNGTIPIYEGERSDYLKGLFRELGHVAARDEISAEYYGIEFLADAAFLRISPAPVADRDGCLITTGARNNAEEDVEILKAALKICEAWKLRPVVLTHAVERFSPYEAEIIGRGGIFAETASIEHAAETISKCRLHIGGRYHMAIFSLLCNVPSLLFDVKTHKNQWLERYSPLITLVHPHTDLDAAAAAVLSGGVSQGHPGSTAAEKYVHFLKRAMAEQPL | not soluble
MLSTIEYLSLLRKYMRENAVKYGISRMGIFGSVARGEQHDGSDVDICVEIDRPSIFTLVHIKEELEKLFKCPVDVVRLRNNMDELLRNCINKDGIYV | not soluble
MAPRDIRPGAEYGDIIEEAIVTCKVFLIVFSETSQISRWVRSELNIGFSSNKPIIPFRIDPTDLKGSMKLMLNDKHWLNAYPNPEEKFSELAAVILDLLQHPAVDTISPPGFQPASNVASADGSNAGAQGLFGKLLNQLFVKRRVKVTSDHAAEIFLNGERKGKLDAYETGNYSVSEDFYQLEVYSCEYGKKVKCEYSGSFSNSSTVIISVDMATAEKQYLMKAKNITSGQINDLGIIFLDEGKFEDAQECFLKAASMGEAAAAYNLGMMYHFGKGVEIDYDVAREYYEEAVKSDYPLALNNLGSIYYNGHGVRKDIAKSFPYFCRAAERGVESAQFTVATMLFYGQGVAVDKAKAKKWFQKAAAQGCKDSQNYLNSWVDDLEHHHHHH | soluble
MKVRFLQISDLHFQFQNYDTIVMRDKLLDFIEVLRRESDFDFLLLTGDIAHKGDVYNEDVKEYLNGIIKSMGLSKNNVHLVPGNHDISRDMTRTLLIDSIMKSPNPSEMLDKLDQKATNILVEGQRKFFDFYEDFMGVKYPEEDLHFLYQSEKYNVLSINTCLLSDKKGEEGTLLTAQMKLYKAIRKMNKEKNKGKVLNIAIGHHTLGCIESSERESIKAHFDDYFIDLYLAGHVHDSSFNITANTNENPFLELVSGAIIKDEYATPEFISVDVNLDNGETEVTYYIWNTEYKYWSKNNQGGRRLQEGKLNYKINRLESLIEKEIEDNDDKIDEDEFKSFIIDFHEYRESYKTFTSNFDNQIGLDKKFYDMKSGETFKRKFDSYSEYFGVINHIMDSTSYVSADKKELIAETIVDKYLEFHNQYNNGDEIFVKIVNEIYLECHSVLPYSKALTKKYIKILTCWCIYECEIFNDNKRSVKNDLEHHHHHH | soluble
MATLLEQLSTMTVVVADTGDLDAIRKFTPRDATTNPSLILAAAQIPAYQSLIDEALHSSRQLLGNSAAVEEVVHEALDEICVIFGKEILKIVPGRVSTEVDARLSFNTEATIAKAHKLIGLYNDAGITNDRVLIKIASTWEGIKAAEVLEKDGIHCNLTLLFGFSQAVACAEAGVTLISPFVGRILDWYKASTGRDSYAGPEDPGVISVTKIFNYFKTYDYKTEIMGASFRNLDEIIELAGCDLLTISPKLLDQLGSTEAPLKRKLDAVNPVAAESQIHVDKESFESMMRADRMAFEKLDEGIRGFSKAIETLEAQLAHRLAVLEGGAAFCHVVQEIFMLNDLDGDGCITREEWLGSDAVFDALDHDHDGRLLQEDVRSGLGAALALTTA | not soluble
QRHQKNQNQQRIQALLEESQRRLKQMINKTHVGLLLINEQGQLFDLNPMAKRLFCLPENVNRQTFAWELFDAGNPNSTTLTLLRDLPKHKELAEISAVETMARRSDGSVFPVLFSLTTFPWHGELYFLATLIDISKRKKAEQSLQLINQELAQRVEERTQALRQAQEQLIESSKMAALGRMSSAITHELNQPLTGLRTLLTTNELLAERGETAMMKANNVLVQKLIDRMASMTSQLKTFAYNKPEKLQALSLTSALEETLRVYQSQLANVDVRVRIPSDLPQIQGEEQRLQQVLGNLISNALDAMQSRDNPQLSIVVTPTNSHVEVVVSDNGCGVALEQLDTIFEPFQTSKKIGEGLGLGLSITANNMRDMNGQVTAKRNPGSGMSFLLRFQLANTID | not soluble
